These results are taken from publication PMC11727998, “Purification and Electron Transfer from Soluble c-Type Cytochrome TorC to TorA for Trimethylamine N-Oxide Reduction” (International Journal of Molecular Sciences, 2024).

B1: soluble TorC (heme-containing, holo-TorC) (natural protein, E. coli, UniProt P33226 21-390, looked up)
chain: VAIGIVIGIALIVLPHVGIKVTSTTEFCVSCHSMQPVYEEYKQSVHFQNASGVRAECHDCHIPPDIPGMVKRKLEASNDIYQTFIAHSIDTPEKFEAKRAELAEREWARMKENNSATCRSCHNYDAMDHAKQHPEAARQMKVAAKDNQSCIDCHKGIAHQLPDMSSGFRKQFDELRASANDSGDTLYSIDIKPIYAAKGDKEASGSLLPASEVKVLKRDGDWLQIEITGWTESAGRQRVLTQFPGKRIFVASIRGDVQQQVKTLEKTTVADTNTEWSKLQATAWMKKGDMVNDIKPIWAYADSLYNGTCNQCHGAPEIAHFDANGWIGTLNGMIGFTSLDKREERTLLKYLQMNASDTAGKAHGDKKEEK
modifications: heme c at the five CXXCH motifs (iron saturation about 75% of five hemes)
notes: TorC, pentahemic c-type cytochrome of E. coli, lacking the N-terminal 20 amino acid membrane anchor (first 60 nucleotides of the gene deleted); also called soluble periplasmic TorC; source: E. coli HM125 with pTorC-SS and pEC86 (ccmABCDEFGH), hemin added, purified (Ni-NTA, gel filtration)

Series [1] addresses TorA (Escherichia coli) (UniProt P33225). The following applies: cited from earlier work.
Series [2] has as its target T1, soluble TorC (Escherichia coli, UniProt P33226).
T1 construct: expressed in E. coli HM125 with ccmABCDEFGH; 43 kDa monomer
Kind of series: UV-visible spectroscopy, reduction of TorC. Type of series: biochemical. The following applies: electron donor, anaerobic.

The target of series [3] is TorAD2 (TorA purified in a 1:2 stoichiometry with TorD) (E. coli) (UniProt P33225). Kind of series: SPR; Biacore T200, CM5 chip, target immobilised via amine coupling, 25 °C, 30 µL/min, 20 mM phosphate, 150 mM NaCl, 0.005% Tween 20, pH 7.4; global fit, 1:1 binding; mean of three measurements.
Series [4] has the same target. Kind of series: MST; Monolith NT.115, TorAD2 labelled with NT-647-NHS at constant concentration (5 nM), soluble TorC titrated, 25 °C, premium capillaries.
In series [5] the target is T2, TorA (TMAO reductase) (E. coli, UniProt P33225 40-848).
T2 sequence: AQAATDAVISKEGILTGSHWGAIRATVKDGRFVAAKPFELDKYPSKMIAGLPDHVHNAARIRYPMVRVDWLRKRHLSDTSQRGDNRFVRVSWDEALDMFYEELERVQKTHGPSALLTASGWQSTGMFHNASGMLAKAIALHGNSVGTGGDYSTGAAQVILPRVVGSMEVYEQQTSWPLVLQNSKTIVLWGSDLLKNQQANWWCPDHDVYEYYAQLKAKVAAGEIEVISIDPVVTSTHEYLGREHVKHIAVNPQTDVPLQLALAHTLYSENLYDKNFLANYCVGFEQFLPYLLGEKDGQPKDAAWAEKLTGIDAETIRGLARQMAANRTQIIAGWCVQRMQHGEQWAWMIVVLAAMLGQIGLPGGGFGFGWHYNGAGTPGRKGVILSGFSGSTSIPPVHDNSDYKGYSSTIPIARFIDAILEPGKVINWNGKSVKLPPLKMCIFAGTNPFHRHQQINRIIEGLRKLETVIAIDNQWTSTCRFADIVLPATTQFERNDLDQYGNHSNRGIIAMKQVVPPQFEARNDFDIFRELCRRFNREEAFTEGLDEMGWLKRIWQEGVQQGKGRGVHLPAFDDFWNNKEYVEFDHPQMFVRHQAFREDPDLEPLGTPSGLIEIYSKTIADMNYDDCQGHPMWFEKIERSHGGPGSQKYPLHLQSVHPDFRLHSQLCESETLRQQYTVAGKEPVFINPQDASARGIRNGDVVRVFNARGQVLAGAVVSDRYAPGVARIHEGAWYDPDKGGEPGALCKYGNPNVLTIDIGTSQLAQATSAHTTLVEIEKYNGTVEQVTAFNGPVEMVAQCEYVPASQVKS
As to the kind of experiment: cell-based or functional assay.

For series [6], the target named is T3, apo-TorA (E. coli, UniProt P33225 40-848).
T3 construct: TorA, TMAO reductase of E. coli, apo form; Apo form (without cofactor); source: purified following published procedures [31]
T3 sequence: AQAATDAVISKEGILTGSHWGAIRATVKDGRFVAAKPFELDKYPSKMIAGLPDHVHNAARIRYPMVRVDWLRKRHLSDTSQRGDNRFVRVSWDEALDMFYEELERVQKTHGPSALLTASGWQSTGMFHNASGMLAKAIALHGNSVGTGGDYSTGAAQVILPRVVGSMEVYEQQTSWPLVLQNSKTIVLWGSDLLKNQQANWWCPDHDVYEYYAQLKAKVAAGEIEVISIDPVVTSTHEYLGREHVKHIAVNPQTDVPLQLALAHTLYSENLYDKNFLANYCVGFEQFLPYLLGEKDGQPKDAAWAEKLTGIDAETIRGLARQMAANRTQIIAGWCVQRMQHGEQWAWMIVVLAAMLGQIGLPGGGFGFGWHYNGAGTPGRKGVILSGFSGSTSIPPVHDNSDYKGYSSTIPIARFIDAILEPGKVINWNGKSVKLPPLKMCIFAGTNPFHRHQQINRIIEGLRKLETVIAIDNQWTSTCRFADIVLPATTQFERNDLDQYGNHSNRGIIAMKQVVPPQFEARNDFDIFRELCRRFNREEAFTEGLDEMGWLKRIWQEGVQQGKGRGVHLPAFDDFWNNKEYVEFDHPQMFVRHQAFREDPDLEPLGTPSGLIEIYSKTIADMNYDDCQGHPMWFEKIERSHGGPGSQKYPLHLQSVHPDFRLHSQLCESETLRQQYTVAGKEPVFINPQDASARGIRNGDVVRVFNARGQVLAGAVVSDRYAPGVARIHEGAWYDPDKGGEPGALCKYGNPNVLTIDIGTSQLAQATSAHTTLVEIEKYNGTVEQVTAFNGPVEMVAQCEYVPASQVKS
Kind of series: SPR; Biacore T200, CM5 chip, target immobilised via amine coupling, 25 °C, 30 µL/min, 20 mM phosphate, 150 mM NaCl, 0.005% Tween 20, pH 7.4; global fit, 1:1 binding; mean of three measurements. The following applies: both partners purified.

Series [7] concerns the target T4, apo-TorC (soluble TorC without hemes) (E. coli, UniProt P33226 21-390).
T4 construct: TorC of E. coli lacking the N-terminal 20 amino acid membrane anchor, made without heme insertion; also called soluble apo-TorC; source: E. coli, 'soluble torC' gene expressed without the ccm gene cluster (pEC86) and without hemin, purified
T4 sequence (looked up): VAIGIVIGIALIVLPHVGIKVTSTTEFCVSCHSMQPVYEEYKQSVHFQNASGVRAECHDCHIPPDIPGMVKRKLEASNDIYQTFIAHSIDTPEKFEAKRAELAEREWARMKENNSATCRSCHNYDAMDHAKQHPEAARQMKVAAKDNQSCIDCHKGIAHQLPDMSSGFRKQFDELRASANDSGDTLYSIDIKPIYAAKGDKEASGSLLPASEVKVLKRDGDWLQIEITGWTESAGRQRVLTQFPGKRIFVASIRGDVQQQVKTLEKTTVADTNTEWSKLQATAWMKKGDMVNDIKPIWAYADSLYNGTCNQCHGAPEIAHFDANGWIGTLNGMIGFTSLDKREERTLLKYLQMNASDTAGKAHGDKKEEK
The description is as above. The following applies: both partners purified.

Series [8] concerns the target B1. Described as above. The following applies: both partners purified.
Substrate in series [9]: C[N+](C)(C)[O-]
As to the kind of experiment: GC-MS of derivatized TMA. The following applies: 5 µM menadiol as electron donor via soluble TorC, 100 mM Sörensen buffer pH 6.5, 37 °C, anaerobic. Type of series: biochemical, Escherichia coli. The source says: GC-MS of derivatized TMA on TorA with soluble TorC (physiological electron transfer assay)

Substrate in series [10]: C[N+](C)(C)[O-]
As to the kind of experiment: purified protein. Type of series: biochemical, Escherichia coli. The following applies: 400 µM benzyl viologen (dithionite-reduced), 100 mM Sörensen buffer pH 6.5, 37 °C, anaerobic, 3 nM TorA.

Series [11] deals with T2, TorA (TMAO reductase). As to the kind of experiment: SEC; TorA co-purified with TorD (plasmid pTorAD); TorAD2 complex of 136.5 kDa on analytical gel filtration. The following applies: partners not purified.

On to TorC TorCN (from UniProt P33226), for which the Kd in series [1] was 45 nM.
As to `Cc1cc(O)c2ccccc2c1O` [menadiol], in series [2], the “UV-visible spectroscopy, reduction of TorC” value is given as “menadiol can reduce soluble TorC, which can be re-oxidized by TorA”.
B1: the figures for the Kd in series [3], in series [4] and in series [6] were 309 nM, 1070 nM and 266 nM, respectively. The “kcat of TMAO reduction by TorA with menadiol and soluble TorC as electron donors (TMA quantified by GC-MS)” value in series [5] came out at 0.145 s⁻¹.

B2: TorSN (periplasmic detection domain of TorS) (domain or fragment, E. coli, UniProt P39453 30-332, looked up)
chain: NLRFISQVEKDNTQALIPTMNMARQLSEASAWELFAAQNLTSADNEKMWQAQGRMLTAQSLKINALLQALREQGFDTTAIEQQEQEISRSLRQQGELVGQRLQLRQQQQQLSQQIVAAADEIARLAQGQANNATTSAGATQAGIYDLIEQDQRQAAESALDRLIDIDLEYVNQMNELRLSALRVQQMVMNLGLEQIQKNAPTLEKQLNNAVKILQRRQIRIEDPGVRAQVATTLTTVSQYSDLLALYQQDSEISNHLQTLAQNNIAQFAQFSSEVSQLVDTIELRNQHGLAHLEKASARGQYS
notes: TorS, sensor histidine kinase of E. coli, periplasmic detection domain; also called periplasmic TorS; source: from plasmid pET-Sp (pET21), purified following published procedures [7]
For B2, the dissociation constant (Kd) is 943 nM in series [7] and 1030 nM in [8].

B3: TorA with soluble TorC (physiological electron transfer assay) (Escherichia coli K-12) (protein)
chain: AQAATDAVISKEGILTGSHWGAIRATVKDGRFVAAKPFELDKYPSKMIAGLPDHVHNAARIRYPMVRVDWLRKRHLSDTSQRGDNRFVRVSWDEALDMFYEELERVQKTHGPSALLTASGWQSTGMFHNASGMLAKAIALHGNSVGTGGDYSTGAAQVILPRVVGSMEVYEQQTSWPLVLQNSKTIVLWGSDLLKNQQANWWCPDHDVYEYYAQLKAKVAAGEIEVISIDPVVTSTHEYLGREHVKHIAVNPQTDVPLQLALAHTLYSENLYDKNFLANYCVGFEQFLPYLLGEKDGQPKDAAWAEKLTGIDAETIRGLARQMAANRTQIIAGWCVQRMQHGEQWAWMIVVLAAMLGQIGLPGGGFGFGWHYNGAGTPGRKGVILSGFSGSTSIPPVHDNSDYKGYSSTIPIARFIDAILEPGKVINWNGKSVKLPPLKMCIFAGTNPFHRHQQINRIIEGLRKLETVIAIDNQWTSTCRFADIVLPATTQFERNDLDQYGNHSNRGIIAMKQVVPPQFEARNDFDIFRELCRRFNREEAFTEGLDEMGWLKRIWQEGVQQGKGRGVHLPAFDDFWNNKEYVEFDHPQMFVRHQAFREDPDLEPLGTPSGLIEIYSKTIADMNYDDCQGHPMWFEKIERSHGGPGSQKYPLHLQSVHPDFRLHSQLCESETLRQQYTVAGKEPVFINPQDASARGIRNGDVVRVFNARGQVLAGAVVSDRYAPGVARIHEGAWYDPDKGGEPGALCKYGNPNVLTIDIGTSQLAQATSAHTTLVEIEKYNGTVEQVTAFNGPVEMVAQCEYVPASQVKS
notes: recombinant TorA plus soluble TorC (first 20 residues, membrane anchor, deleted); with Cytochrome c-type protein TorC
Turning to B3, in series [9], the Km is recorded as 9.8 ± 2.53 µM and the kcat was 0.145 ± 0.05 s⁻¹.

B4: TorA (TMAO reductase) (Escherichia coli K-12) (protein)
chain: AQAATDAVISKEGILTGSHWGAIRATVKDGRFVAAKPFELDKYPSKMIAGLPDHVHNAARIRYPMVRVDWLRKRHLSDTSQRGDNRFVRVSWDEALDMFYEELERVQKTHGPSALLTASGWQSTGMFHNASGMLAKAIALHGNSVGTGGDYSTGAAQVILPRVVGSMEVYEQQTSWPLVLQNSKTIVLWGSDLLKNQQANWWCPDHDVYEYYAQLKAKVAAGEIEVISIDPVVTSTHEYLGREHVKHIAVNPQTDVPLQLALAHTLYSENLYDKNFLANYCVGFEQFLPYLLGEKDGQPKDAAWAEKLTGIDAETIRGLARQMAANRTQIIAGWCVQRMQHGEQWAWMIVVLAAMLGQIGLPGGGFGFGWHYNGAGTPGRKGVILSGFSGSTSIPPVHDNSDYKGYSSTIPIARFIDAILEPGKVINWNGKSVKLPPLKMCIFAGTNPFHRHQQINRIIEGLRKLETVIAIDNQWTSTCRFADIVLPATTQFERNDLDQYGNHSNRGIIAMKQVVPPQFEARNDFDIFRELCRRFNREEAFTEGLDEMGWLKRIWQEGVQQGKGRGVHLPAFDDFWNNKEYVEFDHPQMFVRHQAFREDPDLEPLGTPSGLIEIYSKTIADMNYDDCQGHPMWFEKIERSHGGPGSQKYPLHLQSVHPDFRLHSQLCESETLRQQYTVAGKEPVFINPQDASARGIRNGDVVRVFNARGQVLAGAVVSDRYAPGVARIHEGAWYDPDKGGEPGALCKYGNPNVLTIDIGTSQLAQATSAHTTLVEIEKYNGTVEQVTAFNGPVEMVAQCEYVPASQVKS
notes: recombinant from plasmid pTorAD (torAD in pJF119EH), expressed in E. coli; bis-MGD enzyme; monomer; also purified as TorAD2 complex; first 48 and last 5-10 residues not seen in crystal
Take B4: in series [10], the Michaelis constant (Km) stood at 22.06 ± 0.75 µM and the turnover number (kcat) came out at 228 ± 46.3 s⁻¹.

B5: TorD (natural protein, E. coli, UniProt P36662 1-199, looked up)
chain: MTTLTAQQIACVYAWLAQLFSRELDDEQLTQIASAQMAEWFSLLKSEPPLTAAVNELENRIATLTVRDDARLELAADFCGLFLMTDKQAALPYASAYKQDEQEIKRLLVEAGMETSGNFNEPADHLAIYLELLSHLHFSLGEGTVPARRIDSLRQKTLTALWQWLPEFVARCRQYDSFGFYAALSQLLLVLVECDHQNR
notes: source: co-expressed from plasmid pTorAD and co-purified with TorA
B5: the “stoichiometry N” value in series [11] stood at 2 TorD per TorA.
